According to US20250163183A1 (COAGULANT THERAPEUTICS, published 2025):

How the values were obtained:
[1] = target: T1, human APC-PPACK (active site-blocked APC) (human, UniProt P04070 43-461, active site bound by the tripeptide inhibitor Phe-Pro-Arg-chloromethylketone (PPACK)); test: ELISA
T1 construct: Bought (Haematologic Technologies)

[2] = target: T2, human protein C (PC) zymogen (human, UniProt P04070 43-197; P04070 200-461); test: ELISA screen, PC-coated wells, OD450, n=2 [Continued]
T2 construct: Bought
T2 sequence (P04070 43-197, chain 1 of 2): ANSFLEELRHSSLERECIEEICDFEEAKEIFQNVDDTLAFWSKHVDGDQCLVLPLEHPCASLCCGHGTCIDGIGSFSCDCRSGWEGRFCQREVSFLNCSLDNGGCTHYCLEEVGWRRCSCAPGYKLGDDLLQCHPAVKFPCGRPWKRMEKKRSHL
T2 sequence (P04070 200-461, chain 2 of 2): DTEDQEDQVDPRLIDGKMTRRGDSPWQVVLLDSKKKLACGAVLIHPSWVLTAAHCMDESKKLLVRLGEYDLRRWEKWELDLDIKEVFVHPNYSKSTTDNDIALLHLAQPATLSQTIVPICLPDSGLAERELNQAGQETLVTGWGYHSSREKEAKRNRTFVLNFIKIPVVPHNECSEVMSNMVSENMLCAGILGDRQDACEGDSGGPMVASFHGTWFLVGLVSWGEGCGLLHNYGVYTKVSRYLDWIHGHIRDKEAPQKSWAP

T1 sequence (P04070 other isoform, or with tags, fused parts or gaps): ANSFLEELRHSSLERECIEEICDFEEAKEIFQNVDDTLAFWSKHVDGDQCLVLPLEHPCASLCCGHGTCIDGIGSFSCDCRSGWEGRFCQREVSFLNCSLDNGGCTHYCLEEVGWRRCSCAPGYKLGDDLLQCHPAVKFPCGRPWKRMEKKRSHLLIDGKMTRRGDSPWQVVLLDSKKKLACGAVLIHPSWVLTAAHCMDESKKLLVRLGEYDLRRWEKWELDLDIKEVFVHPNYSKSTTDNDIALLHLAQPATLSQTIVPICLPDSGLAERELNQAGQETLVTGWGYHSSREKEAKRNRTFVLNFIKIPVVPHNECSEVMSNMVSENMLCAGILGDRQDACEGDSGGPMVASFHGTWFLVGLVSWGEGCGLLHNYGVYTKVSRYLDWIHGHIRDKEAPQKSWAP

binding result [1]	binding result [2]	Binder
binds	no binding	SR16983-R3-P3-G05 (VHH) VHH: QLQLVESGGGLVQAGGSLRLSCAASGFTLDDYAIGWFRQAPGKEREGVSCIASSDGSTYYADSVKGRFTISTDNAKNTVYLQMNSLKPEDTAVYYCARGGLLLPKPELFDSWGQGTQVTVSS
binds	no binding	SR16983-R3-P4-A05 (VHH) VHH: QLQLVESGGGLVQAGGSLRLSCAASGFTLDDYAIGWFRQAPGKEREGVSCIATSDGSTYYADSVKGRFTISSDAAKNTVYLQMDSLKPEDTAVYYCARGGLLLPKPELFDGWGQGTQVTVST
binds	no binding	SR16983-R3-P3-A12 (VHH) VHH: QLQLVESGGGLVQPGGSLRLSCAVSGFTLDDYAIGWFRQAPGKEREGVSSIATSDGSTYYADSVKGRFTISSDNAKNTVYLQMNSLKPEDTAVYYCARGGLLLPRPELYEYWGQGTQVTVSS
binds	no binding	SR16983-R3-P2-D12 (VHH) VHH: QLQLVESGGGLVQAGGSLRLSCAASGSTFNFNIMGWYRQVPGKQRELVAVINSGGSADYTEDVKGRFTISRDNAKSIMYLQMNSLKPEDTAVYYCNAKKVEPTLFTTTYWGQGTQVTVSS
binds	no binding	SR16983-R3-P4-H10 (VHH) VHH: QVQLVESGGGLVQAGGSLRLSCAASGLTSSTYVMAWFRQAPGKEREFVSVIDSRGDTTYANSVKGRFTTSRDFGKNTVYLQMNSLQPEDTALYYCAARASPAYVARLYAYWGRGTQVTVSS
binds	no binding	SR16983-R2-P2-A08 (VHH) VHH: QVQLVESGGGVVQAGGSLRLSCAASGLTSSTYVMAWFRQAPGKEREFVSVIDSRGDTTYAKSVKGRFSISRDNGKNAVYLQMNSLQPEDTALYYCAARASASYVARMYAYWGRGTQVTVSS
binds	no binding	SR16983-R3P2D09 (VHH) VHH: QVQLVESGGGLVQAGGSLRLSCAASGRTVGSYAMGWFRQAPGKEREFLAAFSRSTGNTVYADSVKGRFTISRDDAKNTLYLQMNSLKPEDTAVYYCAARASINYNYANWPYWGQGTQVTVSS
binds	no binding	SR16983-R3-P3-G03 (VHH) VHH: QVQLVESGGGLVQAGGSLRLSCAASGRTVGSYVMGWFRQAPGKERELLAAFSRSTGNTVYADSVKGRFTISRDDAKNTLYLQMNSLKPEDTAVYYCAARASINYNYANWPYWGQGTQVTVSS
binds	no binding	SR16983-R3-P3-F04 (VHH) VHH: QLQLVESGGGLVQAGGSLRLSCAASGRTVGSYAMGWFRQAPGKEREFLAASSRSTGNTVYADSVKGRFTISRDDAKNTLYLQMNSLKPEDTAVYYCAARASINYNYANWPYWGQGTQVTVSS
binds	no binding	SR16983-R2-P2-G11 (VHH) VHH: QVQLVESGGGLVQAGGSLRLSCAASGTTFSFNYMGWYRQAPGNQRDLVARISSGGITNYADSVKGRFTISGDNAKNVVYLQMNSLKPEDTARYYCFYNGHLNKWGQGTQVTVSS
binds	no binding	SR16983-R3-P2-E09 (VHH) VHH: QLQLVESGGGLVQAGGSLRLSCAASGTTFSFNYMGWYRQAPGNQRDLVARISSGGSTNYADSVKGRFTISADNAKNTVYLQMNSLKPEDTARYTCFWNGYTNKWGQGTQVTVSS
binds	no binding	SR16983-R3-P2-B02 (VHH) VHH: QLQLVESGGGLVQAGGSLRLSCAASGTTFSFVYMGWYRQAPGNQRDLVARISSDGSTNYADSVKGRFTISGDNAKNIVYLQMNSLKPEDTARYYCFYNGHLNKWGQGTQVTVSS
binds	no binding	SR16983-R2-P5-H07 (VHH) VHH: QVQLVESGGGLVQAGGSLRLSCAASGTTFSFVYMGWYRQAPGNQRELVARISSDGSTNYSDSVKGRFLISGANAKNTVYLQMNSLKPEDTARYYCFYNGHLNKWGQGTQVTVSS
binds	no binding	SR16983-R3-P4-F06 (VHH) VHH: QLQLVESGGGLVQAGGSLRLSCEASRTTFSFNYMGWYRQAPGNQRDLVARISSGGITNYADSVKGRFTISGDNAKNTVYLQMNSLKPEDTARYYCFYNGHLNKWGQGTQVTVSS
binds	no binding	SR16983-R3-P5-C03 (VHH) VHH: QLQLVESGGGLVQAGGSLRLSCAASGTTFSFVYMGWYRQAPGNQRELVARLSSDGSTNYADSVKGRFLISGDNAKNTVYLQMNSLKPEDTARYYCFYNGHLNKWGQGTQVTVSS
binds	no binding	SR16983-R3-P2-G05 (VHH) VHH: QLQLVESGGGLVQTGGSLRLSCAASGTTFSFVYMGWYRQAPGNQRDLVARISSDGSTNYADSVKGRFTISGGNAKNTVYLQMNSLKPEDTARYYCFYNGHLNKWGQGTQVTVSS
binds	no binding	SR16983-R3P2G08 (VHH) VHH: QLQLVESGGGLVQAGGSMRLSCTASGSTVRVTAGGWYRQAPGNERELVADIDNGGSTTYADSVKGRFTISRDNAKNAVDLQMNSLKPEDTAVYRCFVIAIPDSAPRPRAYWGQGTQVTVSS
	no binding	SR16983-R3P2H01 (VHH) VHH: QLQLVQSGGGLVQAGGSLRLSCTASGSTVRVTAGGWYRQTPGNERELVADIDNGGSTTYADSVKGRFTISRDNAKNAVDLQMNSLKPEDTAVYRCFVIAIPDSAPRPRAYWGQGTEVTVSS
binds	no binding	SR16983-R2-P4-F09 (VHH) VHH: QVQLVESGGGLVQAGGSLRLSCAASGFTFDDYAIGWFRQAPGKEREGIACRSTDGSTYYADSVEGRFTISSDNAKRTVYLQMNSLKPGDTAVYYCAADLMGVHRRCSGYLNLEYGMDYWAKGTLVTVSS
binds	no binding	SR16983-R3-P4-A07 (VHH) VHH: QVQLVESGGGLVQAGGSLRLSCAASGRTFVGSYVMGWFRQAPGKEREFVAASSRSTGNTVYLDSVKGRFTVSRDDAKNTLYLQMNSLKPEDTAVYYCATRASINYNYAAWPYWGQGTQVTVSS
binds	no binding	SR16983-R2-P2-E10 (VHH) VHH: QLQLVESGGGLVQPGGSLRLSCVLSGSTFGRNVITWYRQPPGKQREFIAMITTSGSTRYADSVKGRFTMSRDTAKNTAFLQMSNLKLEDTAVYYCWTAIAGQGEYWGQGTQVTVSS
binds	no binding	SR16983-R4-P1-C07 (VHH) VHH: EVQLVESGGGVVQAGGSLRLSCVLSGNTFGDNVITWYRQPPGKQREFIAMITKSGSTRYADSVKGRFTMSRDTAKNTAFLQMSSLKVEDTAVYYCWTAIAGQGEYWGQGTQVTVSS
binds	no binding	SR16983-R2-P3-F07 (VHH) VHH: QLQLVESGGGLVQAGGSLRLSCAASGTTFDMNSMGWYRQAPGFKRDLVATISIGGDTNYTDSVKGRFTISRDNAKNTVYMQMNSLKPEDTAVYYCNAERIWPNRRSFWGQGTQVTVSS
binds	no binding	SR16983-R3-P5-D01 (VHH) VHH: QLQLVESGGGLVQAGGSLRLSCAASGTTFDMNSIGWYRQAPGKQRELVATISIGGSTNYADSVKGRFTISRGNAKNTVYMQMNSLKPEDTAVYYCNAERIWPNRRTFWGQGTQVTVSS
binds	no binding	SR16983-R3P2H05 (VHH) VHH: QLQLVESGGGLVQPGGSLRLACAASGFSFDDYAIGWFRQAPGKEREGVSCITSDGSTYYADSVKGRFTISSDYAKNTVHLQMNSLKPEDTAVYYCARGGLLLPKPELFDDWGQGTQVTVSS
binds	no binding	SR16983-R2-P4-G06 (VHH) VHH: EVQLVESGGGLVQAGGSLRLSCTTSGSTFSITAGGWYRQAPGKQRELVADIANDGSTTYADSVKGRFTISRDNAKNTVELQMSSLKLEDTAVYLCFVVGISDSTPRPRAYWGQGTQVTVSS
binds	no binding	SR16983-R3P2F4 (VHH) VHH: QLQLVESGGGLVQAGGSLRLSCAASGRIFGTYVMGWFRQAPGKEREFVAAVSRSTGSTYADSVKGRFTISRDDAKNMLYLQMNNLRPEDTAIYYCATRASINYNYANWPYWGQGTQVTVSS
binds	no binding	SR16983-R3-P3-C06 (VHH) VHH: QLQLVESGGGLVQPGGSLRLSCAASGFTFSTKWMYWVRQGPGKGLEWVSTIDASGGSTYYADSVKGRFTISRDNTEKKVYLQMNSLESADTAVYYCARSAGGQFRGRGTQVTVSS
binds	no binding	SR16983-R3P2A07 (VHH) VHH: QVQLVESGGRLVQAGGSLRLSCAASGRTSSNYAMGWFRQAPGKERRFVAGISRDGADTSYADSVKGRFTILRDRSKNTADLQMNSLKPEDTAIYYCAAARGIYGEISRYTGDYESWGQGTQVTVSS
